# Patent US8013137B2, “Modified enteropeptidase protein” (National University Corporation Hokkaido University, priority 2006, dated 2011)
# Columns and labels:
# [1] = test system: Pro-Phe-Arg-MCA; assay: Activity assay of EP proteases and EP-treated hK8 samples with Pro-Phe-Arg-MCA (FIG. 4B middle); assay type: biochemical
# Procedure: (§1) (A) A recombinant fusion protein of Medaka gelatinase A (5 μg) was separately incubated with active EP proteases (100 ng) at 37° C. for 1 h, and analyzed by SDS-PAGE. (B) A recombinant fusion protein of human kallikrein 8 (hK8) (5 μg) was incubated with active EP proteases (100 ng) at 37° C. for 2 h. After incubation, the samples were analyzed by SDS-PAGE (upper panel), or assayed for activity with Pro-Phe-Arg-MCA (middle panel), or Boc-Glu(OBzl)-Ala-Arg-MCA (lower panel). […] The samples were then analyzed by SDS-PAGE/Western blotting using anti-human tPA antibody (upper panel) or anti-His probe antibody (lower panel). The position of sctPA (58- and 61-kDa) detected with the antibodies is shown.
# (§2) EP activity was routinely determined using the specific substrate Gly-Asp-Asp-Asp-Asp-Lys-β-naphthylamide (GD4K-βNA) (SEQ ID NO: 6) (Sigma) according to the method of Mikhailova and Rumsh (Mikhailova et al., FEBS Lett., 442:226-230 (1999)). Enzyme activity for various 4-methylcoumaryl-7-amide (MCA)-containing peptide substrates was determined by the method of Barrett (Barrett et al., J., Biochem. J., 187:909-912 (1980)). For kinetic studies, initial velocities, extrapolated from the plot of product versus time, were transformed into double-reciprocal plots (Lineweaver et al., J. Am. Chem. Soc., 56:658-663 (1934)). The maximum velocities (Vmax) and Km and kcat values were obtained from the intercepts of these plots. For all experiments, the results of at least three separate determinations are shown.
# Next, a 35.5-kDa protein of human kallikrein 8 (hK8) in the same E. coli expression system was synthesized. Digestion with Medaka wild-type and mutant EP proteases generated 31.5-kDa active hK8 by cleaving the D4K sequence (SEQ ID NO: 1) (FIG. 4B, Top). […] The EP protease-treated samples were directly assayed for hK8 activity using Pro-Phe-Arg-MCA, a good synthetic peptide substrate of hK8 (Rajapakse et al., FEBS Lett., 579:6879-6884 (2005)). […] The substrate Boc-Glu(OBzl)-Ala-Arg-MCA, which is slightly cleaved by active hK8, was rapidly hydrolyzed with the samples treated with mammalian, but not Medaka, EP proteases (FIG. 4B, Bottom).
# [2] = test system: recombinant Medaka trypsinogen; assay: Activation of recombinant Medaka trypsinogen, SDS-PAGE; assay type: biochemical; conditions: 37° C., 15, 30 and 45 min
# [3] = test system: D4K-cleavage site-containing control protein; assay: Cleavage of D4K-cleavage site-containing control protein (Novagen); assay type: biochemical; conditions: 37° C., 1 h, 100 ng EP
# Procedure: (§3) (A) Active recombinant EP proteases were assayed using a GD4K-βNA (SEQ ID NO: 6) substrate as a substrate. Bovine (Nvg), bovine EP protease available from Novagen; Bovine (Neb), bovine EP protease available from NEB. (B) Active recombinant EP proteases were assayed using various synthetic peptide substrates. (C) Active EP proteases were analyzed by gelatin zymography. (D) Fibronectin (4 μg) was incubated with active EPs (100 ng) at 37° C. for 12 h. (E) Laminin ((10 μg) was incubated with active recombinant EPs (100 ng) at 37° C. for 12 h. (F) Two μg of the control protein containing the D4K site (SEQ ID NO: 1) was incubated with active recombinant EPs (100 ng) at 37° C. for 1 h.
# (§4) The effect of Medaka EP serine protease on various fusion proteins containing a D4K-cleavage site (SEQ ID NO: 1) was examined. […]
# [4] = test system: gelatin; assay: Gelatin zymography; assay type: biochemical; conditions: FIG. 2C
# Procedure: as §3, §4
# [5] = test system: Boc-Glu(OBzl)-Ala-Arg-MCA, Z-Phe-Arg-MCA, and Pro-Phe-Arg-MCA; assay: Amidolytic activity for synthetic MCA-containing peptide substrates (panel); assay type: biochemical; conditions: FIG. 2B
# [6] = test system: GD4K-βNA; assay: EP activity and kinetic study with specific substrate GD4K-βNA; assay type: biochemical; conditions: for Km / kcat: substrate GD4K-βna
# Procedure: as §3
# (A) The purity of purified recombinant Medaka EP-1 and EP-2 protease was assessed by SDS-PAGE. Lane 1, Medaka EP fusion protein; lane 2, Medaka EP protease treated with immobilized trypsin; lane 3, Medaka EP protease purified using a resource Q column. (B) The enzyme activities of EP proteases were determined at various pHs using GD4K-βNA (SEQ ID NO: 6) as a substrate. (C) Recombinant Medaka trypsinogen was incubated at 37° C. with EPs for 15, 30 and 45 min. After incubation, samples were analyzed by SDS-PAGE and visualized by CBB staining (upper panel). The relative amount of the active form of Medaka trypsin at each time point were calculated based on the results shown in the upper panel (lower panel). The results are presented as the means (±SD) of three separate experiments.
# as §2
# [7] = test system: mouse laminin; assay: Hydrolysis of laminin, SDS-PAGE; assay type: biochemical; conditions: 37° C., 12 h, 100 ng EP
# Procedure: as §3, §4
# [8] = test system: Human plasma fibronectin; assay: Hydrolysis of fibronectin, SDS-PAGE; assay type: biochemical; conditions: 37° C., 12 h, 100 ng EP
# Procedure: as §3, §4
# [9] = Enzyme stability, residual activity using GD4K-βNA; assay type: physicochemical
# Procedure: […] Aliquots of the reaction mixtures were taken at the indicated times for an activity assay using GD4K-βNA (SEQ ID NO: 6) as a substrate. The enzyme activities relative to that at 0-time are shown.
# […] The enzyme activity was measured at various time points (0 to 96 h) using GD4K-βNA (SEQ ID NO: 6) as a substrate.
# [10] = test system: recombinant fusion protein of human kallikrein 8 (hK8); assay: Cleavage of recombinant fusion protein of human kallikrein 8 (hK8); assay type: biochemical; conditions: 37° C., 2 h, 100 ng EP
# Procedure: as §1, §4
# [11] = test system: human high-molecular-weight (HMW) kininogen; assay: Hydrolysis of HMW kininogen, SDS-PAGE; assay type: biochemical; conditions: 37° C., 2 h, 100 ng EP
# Procedure: (§5) (A) The specific activities of wild-type (EP-1) and mutant EP protease were determined using synthetic peptide substrates. (B) High-molecular-weight (HMW) kininogen (5 μg) was incubated with active EP proteases (100 ng) at 37° C. for 2 h and analyzed by SDS-PAGE. (C) Fibrinogen (10 μg) was incubated with active EP proteases (100 ng) at 37° C. for 12 h and analyzed by SDS-PAGE.
# (§6) The effect of Medaka EP serine protease on various fusion proteins containing a D4K-cleavage site (SEQ ID NO: 1) was examined. Human plasma fibronectin (Chemicon, Temecula, Calif.), human fibrinogen (Merk Biosciences, Tokyo, Japan), human high-molecular-weight (HMW) kininogen (Calbiochem, La Jolla, Calif.), mouse laminin (Biomedical Technologies Inc., Stoughton, Mass.), D4K-cleavage site-containing (SEQ ID NO: 1) control protein (Novagen), Medaka gelatinase A (Ogiwara et al., Proc. Natl. Acad. Sci. USA, 102:8442-8447 (2005)) and trypsinogen (this study), human kallikrein 8 (hK8) (Rajapakse et al., FEBS Lett., 579:6879-6884 (2005)) and human tissue-type plasminogen activator (tPA) were incubated at 37° C. in 20 mM Tris.HCl buffer (pH 7.4) containing 50 mM NaCl and 2 mM CaCl2 with various EP serine proteases at ratios (w/w) ranging from 20:1 to 100:1. After incubation, samples were subjected to SDS-PAGE followed by Coomassie Brilliant Blue staining. […]
# [12] = test system: GD4K-βNA and the three MCA-containing substrates; assay: Specific activities of wild-type and mutant EP protease using synthetic peptide substrates (FIG. 3A); assay type: biochemical
# Procedure: as §5, §2
# [13] = test system: human fibrinogen; assay: Hydrolysis of fibrinogen, SDS-PAGE; assay type: biochemical; conditions: 37° C., 12 h, 100 ng EP
# Procedure: as §5, §6
# [14] = test system: human single-chain tPA fusion protein; assay: Cleavage of human single-chain tPA fusion protein, Western blotting; assay type: biochemical; conditions: 37° C., 1 h, 100 ng EP
# [15] = test system: recombinant fusion protein of Medaka gelatinase A; assay: Cleavage of recombinant fusion protein of Medaka gelatinase A; assay type: biochemical; conditions: 37° C., 1 h, 100 ng EP
# [16] = test system: medaka EP-1 protease; assay: Inhibitor assay, enzyme activity measured using GD4K-βNA as a substrate; assay type: biochemical, medaka (Oryzias latipes); conditions: inhibitor 0.1 mg/ml; GD4K-βNA substrate; 10 min preincubation
# [17] = test system: medaka EP-2 protease; assay: as above; assay type: biochemical, medaka (Oryzias latipes); conditions: inhibitor 0.1 mg/ml; GD4K-βNA substrate; 10 min preincubation
molecule,measurement,setting,value
"EP-1: recombinant serine protease domain of Medaka (Oryzias latipes) enteropeptidase-1, wild type, SEQ ID NO: 2 (protein, Oryzias latipes) VVGGVNAEKGAWPWMVSLHWRGRHGCGASLIGRDWLLTAAHCVYGKNTHLQYWSAVLGLHAQSSMNSQEVQIRQVDRIIINKNYNRRTKEADIAMMHLQQPVNFTEWVLPVCLASEDQHFPAGRRCFIAGWGRDAEGGSLPDILQEAEVPLVDQDECQRLLPEYTFTSSMLCAGYPEGGVDSCQGDSGGPLMCLEDARWTLIGVTSFGVGCGRPERPGAYARVSAFTSWIAETRRSSFSDLD",enzyme activity of the EP protease itself with Pro-Phe-Arg-MCA,[1],"none of the Medaka EP proteases (wild-type EP-1, K63R, E173A, or E193A) showed any significant enzyme activity"
same,conversion of recombinant Medaka trypsinogen to active trypsin,[2],converted to active trypsin by EP-1 faster than by EP-2
same,cleavage of fusion protein containing an EP-cleavage site (Novagen),[3],specifically cleaved the fusion protein to generate two polypeptides having expected molecular masses of 16- and 32-kDa
same,hydrolysis of gelatin,[4],Little or no hydrolysis
same,amidolytic activities for synthetic MCA-containing peptide substrates compared with mammalian EP proteases,[5],much lower than those of the EP proteases of mammalian origin
same,rate of GD4K-βNA cleavage compared with porcine and bovine enzymes,[6]; FIG. 2A,at a rate comparable to those of the porcine and bovine enzymes
same,activity for GD4K-βNA relative to EP-2,[6]; FIG. 8B,approximately three times more active than EP-2
same,pH of maximal activity for GD4K-βNA,"[6]; serine protease domain, FIG. 8B",8
same,Km,[6],700 µM
same,kcat,[6],15.7 s⁻¹
same,hydrolysis of laminin,[7],Little or no hydrolysis
same,hydrolysis of fibronectin,[8],Little or no hydrolysis
same,stability of enzyme activity on storage,[9]; 4° C.,the initial enzyme activity was retained at both temperatures for at least six months
same,loss of enzyme activity,"[9]; 37° C., neutral pH, after 4 days of incubation",about 30%
same,stability of enzyme activity on storage,[9]; −20° C.,the initial enzyme activity was retained at both temperatures for at least six months
Porcine: active recombinant enzyme of the porcine EP serine protease domain (Ile800 to His1034) (protein) IVGGNDSREGAWPWVVALYYNGQLLCGASLVSRDWLVSAAHCVYGRNLEPSKWKAILGLHMTSNLTSPQIVTRLIDEIVINPHYNRRRKDSDIAMMHLEFKVNYTDYIQPICLPEENQVFPPGRICSIAGWGKVIYQGSPADILQEADVPLLSNEKCQQQMPEYNITENMMCAGYEEGGIDSCQGDSGGPLMCLENNRWLLAGVTSFGYQCALPNRPGVYARVPKFTEWIQSFLH,enzyme activity of the EP protease itself with Pro-Phe-Arg-MCA,[1],considerable enzyme activities were detected
same,Km,[6],400 µM
same,kcat,[6],8.83 s⁻¹
same,cleavage of hK8 fusion protein,[10],extensively degraded the substrate
"E173A: EP-1 with E173A mutation, SEQ ID NO: 4 (protein, Oryzias latipes) VVGGVNAEKGAWPWMVSLHWRGRHGCGASLIGRDWLLTAAHCVYGKNTHLQYWSAVLGLHAQSSMNSQEVQIRQVDRIIINKNYNRRTKEADIAMMHLQQPVNFTEWVLPVCLASEDQHFPAGRRCFIAGWGRDAEGGSLPDILQEAEVPLVDQDACQRLLPEYTFTSSMLCAGYPEGGVDSCQGDSGGPLMCLEDARWTLIGVTSFGVGCGRPERPGAYARVSAFTSWIAETRRSSFSDLD",nonspecific proteolytic activity for human HMW kininogen,[11],retained a low nonspecific proteolytic activity
same,enzyme activity of the EP protease itself with Pro-Phe-Arg-MCA,[1],"none of the Medaka EP proteases (wild-type EP-1, K63R, E173A, or E193A) showed any significant enzyme activity"
same,enzyme activity for synthetic peptide substrates compared with the wild-type enzyme,[12],significantly lower activities than the wild-type enzyme toward all the synthetic substrates tested
same,nonspecific proteolytic activity for human fibrinogen,[13],retained a low nonspecific proteolytic activity
same,cleavage of human single-chain tPA fusion protein,[14],no serious reduction of the D4K (SEQ ID NO: 1) cleaving activity
same,Km,[6],300 µM
same,kcat,[6],5.33 s⁻¹
same,cleavage of hK8 fusion protein,[10],no serious reduction of the D4K (SEQ ID NO: 1) cleaving activity
same,cleavage of Medaka gelatinase A fusion protein,[15],no serious reduction of the D4K (SEQ ID NO: 1) cleaving activity
SBTI (protein) DFVLDNEGNPLENGGTYYILSDITAFGGIRAAPTGNERCPLTVVQSRNELDKGIGTIISSPYRIRFIAEGHPLSLKFDSFAVIMLCVGIPTEWSVVEDLPEGPAVKIGENKDAMDGWFRLERVSDDEFNNYKLVFCPQQAEDDKCGDIGISIDHDDGTRRLVVSKNKPLVVQFQKLDKESL,Inhibition (%) EP-1,[16],99%
same,Inhibition (%) EP-2,[17],99%
